Positions count from the first letter of the chain named.
B1: 3E2.1_GS_CL-34565 (PR-1613189) (bispecific antibody, human IgG1, kappa, L234A L235A)
heavy: EVQLVQSGAEVKKPGSSVKVSCKASGYTFTESYMYWVKQAPGQGLELIGRIDPEDGSTDYVEKFKNKATLTADKSTSTAYMELSSLRSEDTAVYFCARFGARSYFYPMDAWGQGTTVTVSSGGGGSGGGGSEVQLVQSGSELKKPGASVKVSCKASGYTFTDYGMYWVRQAPGQGLEWMGWIDTETGDPTYADDFKGRFVFSLDTSVSTAYLQISSLKAEDTAVYYCARTNYYYRNYMFYFDYWGQGTMVTVSSASTKGPSVFPLAPSSKSTSGGTAALGCLVKDYFPEPVTVSWNSGALTSGVHTFPAVLQSSGLYSLSSVVTVPSSSLGTQTYICNVNHKPSNTKVDKKVEPKSCDKTHTCPPCPAPEAAGGPSVFLFPPKPKDTLMISRTPEVTCVVVDVSHEDPEVKFNWYVDGVEVHNAKTKPREEQYNSTYRVVSVLTVLHQDWLNGKEYKCKVSNKALPAPIEKTISKAKGQPREPQVYTLPPSREEMTKNQVSLTCLVKGFYPSDIAVEWESNGQPENNYKTTPPVLDSDGSFFLYSKLTVDKSRWQQGNVFSCSVMHEALHNAYTQKSLSLSPGK
light: ETVLTQSPATLSLSPGERATLSCRASESVSTLMHWYQQKPGQQPRLLIYGASNLESGVPARFSGSGSGTDFTLTISSLEPEDFAVYFCQQSWNDPWTFGGGTKVEIKGGSGGGGSGGEIVLTQSPATLSLSPGERATLFCRASQSVSNHMHWYQQKPGQAPRLLIYGASILESGVPARFSGSGSGTDFTLTISSLEPEDFAVYYCQQSWYDPITFGQGTKLEIKRTVAAPSVFIFPPSDEQLKSGTASVVCLLNNFYPREAKVQWKVDNALQSGNSQESVTEQDSKDSTYSLSSTLTLSKADYEKHKVYACEVTHQGLSSPVTKSFNRGEC
B2: 3E2.1_GS_1E3.4 (PR-1613190) (bispecific antibody, human IgG1, kappa, L234A L235A)
heavy: EVQLVQSGAEVKKPGSSVKVSCKASGYTFTESYMYWVKQAPGQGLELIGRIDPEDGSTDYVEKFKNKATLTADKSTSTAYMELSSLRSEDTAVYFCARFGARSYFYPMDAWGQGTTVTVSSGGGGSGGGGSEIQLVQSGSELKKPGASVKVSCKASGYPFTNSGMYWVKQAPGQGLEYMGWINTEAGKPTYADDFKGRFVFSLDTSVSTAYLQISSLKAEDTAVYFCARWGYISDNSYGWFDYWGQGTLVTVSSASTKGPSVFPLAPSSKSTSGGTAALGCLVKDYFPEPVTVSWNSGALTSGVHTFPAVLQSSGLYSLSSVVTVPSSSLGTQTYICNVNHKPSNTKVDKKVEPKSCDKTHTCPPCPAPEAAGGPSVFLFPPKPKDTLMISRTPEVTCVVVDVSHEDPEVKFNWYVDGVEVHNAKTKPREEQYNSTYRVVSVLTVLHQDWLNGKEYKCKVSNKALPAPIEKTISKAKGQPREPQVYTLPPSREEMTKNQVSLTCLVKGFYPSDIAVEWESNGQPENNYKTTPPVLDSDGSFFLYSKLTVDKSRWQQGNVFSCSVMHEALHNAYTQKSLSLSPGK
light: ETVLTQSPATLSLSPGERATLSCRASESVSTLMHWYQQKPGQQPRLLIYGASNLESGVPARFSGSGSGTDFTLTISSLEPEDFAVYFCQQSWNDPWTFGGGTKVEIKGGSGGGGSGGATQLTQSPSSLSASVGDRVTISCRASEGVYSYMHWYQQKPGKQPKLLIYKASNLASGVPSRFSGSGSGTDFTLTISSLQPEDFATYFCHQNWNDPLTFGQGTKLEIKRTVAAPSVFIFPPSDEQLKSGTASVVCLLNNFYPREAKVQWKVDNALQSGNSQESVTEQDSKDSTYSLSSTLTLSKADYEKHKVYACEVTHQGLSSPVTKSFNRGEC
B3: CL-32416-IgG (antibody, V domains shown)
VH: EVQLVQSGSELKKPGASVKVSCKASGYTFTDYGMYWVRQAPGQGLEWMGWIDTETGEPTYADDFKGRFVFSLDTSVSTAYLQISSLKAEDTAVYYCARTNYYYRSYMFYFDYWGQGTMVTVSS
VL: EIVLTQSPATLSLSPGERATLSCRASESVSTHMHWYQQKPGQAPRLLIYGASNLESGVPARFSGSGSGTDFTLTISSLEPEDFAVYFCQQSWNDPFTFGQGTKLEIK
notes: also called h4G8 CL-32416
B4: CL-34449-IgG (antibody, V domains shown)
VH: B3 VH
VL: B3 VL with E27Q, S30G, N53H, V58I, F87Y, S91T, N93Y, F96L
notes: also called h4G8 CL-34449
B5: CL-34469-IgG (antibody, V domains shown)
VH: B3 VH with D31N
VL: B3 VL with E27Q, F87Y, N93Y, F96L
notes: also called h4G8 CL-34469
B6: CL-34475-IgG (antibody, V domains shown)
VH: B3 VH with R104S
VL: B3 VL with E27Q, V58I, F87Y, N93Y, F96L
notes: also called h4G8 CL-34475
B7: CL-34522-IgG (antibody, V domains shown)
VH: B3 VH with T30E, D31N, R104S
VL: B3 VL with E27Q, S30G, N53K, F87Y, N93Y, F96L
notes: also called h4G8 CL-34522
B8: CL-34538-IgG (antibody, V domains shown)
VH: B3 VH with R104P
VL: B3 VL with E27Q, S91T, N93Y, F96L
notes: also called h4G8 CL-34538
B9: CL-34540-IgG (antibody, V domains shown)
VH: B3 VH with E57Q
VL: B3 VL with S30G, T31K, G50A, F87Y, N93Y, F96L
notes: also called h4G8 CL-34540
B10: CL-34565-IgG (antibody, V domains shown)
VH: B3 VH with E57D, S105N
VL: B3 VL with S22F, E27Q, T31N, N53I, F87Y, N93Y, F96I
notes: also called h4G8 CL-34565
B11: CL-34570-IgG (antibody, V domains shown)
VH: B3 VH with T30D, E57T, R104S
VL: B3 VL with E27Q, V58I, F87Y, N93Y, F96L
notes: also called h4G8 CL-34570
B12: CL-34633-IgG (antibody, V domains shown)
VH: B3 VH with T30S
VL: B3 VL with E27Q, N93Y, F96L
notes: also called h4G8 CL-34633
B13: CL-34455-IgG (antibody, V domains shown)
VH: B3 VH with D31N, D62Q, D63G, K65T, R104P
VL: B3 VL with E27Q, S30G, N53K, F87Y, N93Y, F96L
notes: also called h4G8 CL-34455

What follows are binders tested against recombinant human VEGF165 (human, UniProt P15692 207-395) (assay: cell-based or functional assay).
Target sequence in this assay (P15692 other isoform, or with tags, fused parts or gaps limits assumed): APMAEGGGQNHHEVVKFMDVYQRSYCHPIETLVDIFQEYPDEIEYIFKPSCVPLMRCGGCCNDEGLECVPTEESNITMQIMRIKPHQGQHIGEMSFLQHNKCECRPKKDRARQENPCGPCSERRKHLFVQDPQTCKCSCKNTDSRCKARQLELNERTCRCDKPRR

Point of comparison: B1, “Potency IC50 (nM), HMVEC-d hVEGF165 (proliferation)” value 0.063 nM. Against it:
- B2 — 11-fold higher, 0.709 nM

What follows are binders tested against recombinant human PDGF-BB (human, UniProt P01127 82-190) (assay: cell-based or functional assay).
recombinant human PDGF-BB, sequence (P01127 82-190 limits assumed): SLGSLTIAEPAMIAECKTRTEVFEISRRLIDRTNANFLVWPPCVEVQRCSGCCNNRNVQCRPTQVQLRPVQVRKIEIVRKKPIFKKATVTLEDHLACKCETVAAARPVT

Point of comparison: B1, “Potency IC50 (nM), NIH-3T3 hPDGF-BB (proliferation)” value 1.16 nM. Against it:
- B2 — within 1.5-fold, 0.896 nM

These binders were tested against T1, recombinant human VEGF165 (human, UniProt P15692 207-395) (assay: competition ELISA: antibody titrated against biotinylated hVEGF165, binding to plate-coated hVEGF-R2-Fc).
T1 construct: also called hVEGF165
Description: To identify molecules that could block the binding of hVEGF₁₆₅ to the hVEGF-R2 (KDR/Flk-1) receptor, a competition ELISA was performed. […] Plates were then washed four times with wash buffer (TBS, 0.05% Tween-20) and blocked with Superblock blocking buffer (Thermo Scientific, cat#37535). […] The pre-incubated sample/hVEGF₁₆₅ complex was added to the coated plate at 50 μL in duplicate and incubated for 30 minutes at 25° C. with shaking. Following incubation, plates were washed four times with wash buffer. Streptavidin-polyHRP-40 (Fitzgerald cal#65r-s104phrp) was diluted in assay diluent (10% Superblock containing 0.05% surfactamps) and added to plates (50 μL) for 45 minutes at 25° C. with shaking. Plates were washed four times with wash buffer and developed with the addition of Enhanced K-blue TMB substrate (Neogen cat#308177). The reaction was stopped with 2N sulfuric acid (VWR, cat# BDH3500-1) and the absorbance was read at 450 nm-570 nm. A decrease in observed optical density indicates the test molecule is blocking the hVEGF₁₆₅ binding to the hVEGF-R2-Fc. Data was analyzed using Softmax Pro 4.8 software and IC₅₀ values calculated using a sigmoidal dose response (variable slope) fit in GraphPad Prism 5.
(§1) Affinity matured humanized anti-VEGF antibodies were characterized for hVEGF₁₆₅ binding and potency. Binding affinity of these molecules to hVEGF₁₆₅ was determined by Biacore analysis (Example 1.1). Potency was evaluated in both cell-based and ELISA formats. The ability to block binding of hVEGF₁₆₅ to hVEGFR2 was evaluated in a competition ELISA (Example 1.4) Inhibition of hVEGF₁₆₅-induced cell proliferation was assessed using HMVEC-d cells (Example 1.10).
T1 sequence (P15692 other isoform, or with tags, fused parts or gaps limits assumed): as the sequence (P15692 other isoform, or with tags, fused parts or gaps limits assumed) above

B3 and B4 cannot be ordered by IC50: less than 0.1 nM for the first, less than 0.1 nM for the second.

B5 and B6 cannot be ordered by IC50: less than 0.1 nM for the first, less than 0.1 nM for the second.

B7 and B8 cannot be ordered by IC50: less than 0.1 nM for the first, less than 0.1 nM for the second.

B9 and B10 cannot be ordered by IC50: less than 0.1 nM for the first, less than 0.1 nM for the second.

B11 and B12 cannot be ordered by IC50: less than 0.1 nM for the first, less than 0.1 nM for the second.

B13 showed an IC50 of less than 0.1 nM.

These binders were tested against T1, recombinant human VEGF165 (assay: cell-based or functional assay).

Point of comparison: B4, “hVEGF165 IC50 (nM), Potency HMVEC-d (hVEGF165-induced proliferation)” value 0.077 nM. Against it:
- B3 — 1.5-fold higher, 0.117 nM
- B5 — within 1.5-fold, 0.094 nM
- B6 — within 1.5-fold, 0.106 nM
- B7 — 1.5-fold higher, 0.116 nM
- B8 — 1.6-fold higher, 0.127 nM
- B9 — 1.8-fold higher, 0.139 nM
- B10 — 1.6-fold higher, 0.126 nM
- B11 — within 1.5-fold, 0.11 nM
- B12 — 1.8-fold higher, 0.138 nM
- B13 — within 1.5-fold, 0.105 nM

Each binder was assayed against T1, recombinant human VEGF165 (assay: SPR (Biacore), antibody captured by anti-human Fc, hVEGF165 in solution).
Description: Unreacted moieties on the biosensor surface were blocked with ethanolamine. For kinetic analysis, rate equations derived from the 1:1 Langmuir binding model were fitted simultaneously to multiple antigen injections (using global fit analysis) with the use of Scrubber 2 (BioLogic Software), Biacore Biaevaluation 4.0.1 software or Biacore T100 Evaluation software. Purified antibodies or DVD-Ig molecules were diluted in running buffer for capture across goat anti-human Fc reaction surfaces. Antibodies or DVD-Ig molecules to be captured as a ligand (1 μg/ml) were injected over reaction matrices at a flow rate of 10 μl/minute. During the assay, all measurements were referenced against the capture surface alone (i.e., with no captured antibody or DVD-Ig molecule). […] The equilibrium dissociation constant KD (M) of the reaction between antibodies and the target antigen was then calculated from the kinetic rate constants by the following formula: KD=Koff/Kₒₙ. Binding was recorded as a function of time and kinetic rate constants were calculated. In this assay, on-rates as fast as 10⁶M⁻¹s⁻¹ and off-rates as slow as 10⁻⁶ s⁻¹ could be measured.
as §1

Point of comparison: B10, Kd 0.0004 nM. Against it:
- B3 — within 1.5-fold, 0.00054 nM
- B4 — 2.1-fold higher, 0.00085 nM
- B5 — 1.5-fold higher, 0.00062 nM
- B6 — within 1.5-fold, 0.00052 nM
- B7 — within 1.5-fold, 0.00053 nM
- B8 — 1.7-fold lower, 0.00024 nM
- B9 — 2.1-fold higher, 0.00085 nM
- B11 — within 1.5-fold, 0.00029 nM
- B12 — 1.7-fold lower, 0.00024 nM
- B13 — within 1.5-fold, 0.00046 nM

Point of comparison: B4, kon 1.1e+07 M⁻¹ s⁻¹. Against it:
- B3 — 1.8-fold higher, 2e+07 M⁻¹ s⁻¹
- B5 — within 1.5-fold, 1.5e+07 M⁻¹ s⁻¹
- B6 — 2.5-fold higher, 2.7e+07 M⁻¹ s⁻¹
- B7 — 1.8-fold higher, 2e+07 M⁻¹ s⁻¹
- B8 — 3-fold higher, 3.3e+07 M⁻¹ s⁻¹
- B9 — within 1.5-fold, 8.4e+06 M⁻¹ s⁻¹
- B10 — 1.8-fold higher, 2e+07 M⁻¹ s⁻¹
- B11 — 1.7-fold higher, 1.9e+07 M⁻¹ s⁻¹
- B12 — 1.5-fold higher, 1.7e+07 M⁻¹ s⁻¹
- B13 — 2-fold higher, 2.2e+07 M⁻¹ s⁻¹

— patent US20170015742A1 (published 2017)
